Assays:
[1] = molecular target: Full-length FLAG-tagged recombinant SMCHD1 (mouse) (UniProt Q6P5D8); assay: negative-stain electron microscopy; purified FLAG-rSMCHD1, 100 ng/ml, 0.75% uranyl formate, 80 kV
[2] = molecular target: the molecule itself; assay: SEC; affinity-purified wild-type and mutant hinge domains on a Superdex 75 10/300 column, 0.5-ml fractions, A280 and Coomassie-stained SDS-PAGE

Row | stoichiometry N [1] | Molecule | stoichiometry N [2]
1 | 2 | Full-length FLAG-tagged recombinant SMCHD1, Q6P5D8 1-2007 | 
2 |  | SMCHD1 hinge domain, recombinant wild type (residues 1616 to 1963) (domain or fragment, mouse, UniProt Q6P5D8 1616-1963, looked up, SMCHD1 SMC hinge domain, mouse, residues 1616 to 1963; Cloned into pET28a; also called wild-type HD; WT hinge; source: E. coli BL21-RosettaBlue, purified (Talon resin)) NDVKKQQQMAALTKEKDELSKSITMYRSLFDANKQLVDEMKCQAEEAKLKETQLRNELKAYNIDIPATQQTTHIEALLEKKITEQNELKKRPRRLCTLPNYTKRSGDILGKIAHLAQIEDDRAAMVISWHLASDMDCVVTLTTDAARAIYDETQGRQQVLPLDSIYRKTLPDWKRPLPHFRNGKLHFKPFGNPVFARDLLTFPDNIEHCETVFGMLLGDTIILDNLDAANHYRKEVVKITHCPTLLTRDGDRIRSNGKFGGLQNKAPPMDKLRGMVFGAPVPKQCVVLGKQIDLIQQYRTALYRLSSVNEDLDNQLQYLHTPDMKKKKQELDEQEKSLKRIEQKLGMT | 2

— publication PMC4628070, “Independent Mechanisms Target SMCHD1 to Trimethylated Histone H3 Lysine 9-Modified Chromatin and the Inactive X Chromosome” (Molecular and Cellular Biology, 2015)
